Here are results for 13 sequences from the supplement of paper PMC9170038.

This data set concerns MS2 coat protein. The data set is described as follows: apparent KD of MS2 coat protein; designed switch direction (-1 OFF switch, 1 ON switch): -1; higher = weaker reporter binding. An outline of the steps: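 Each step of the titration lasted 0.8–1.5 h at the lowest concentration and 10–20 min at the highest. The protein, SNAP-549-labelled MS2 coat protein, went from 0.7 or 1.5 nM doubling to 3 µM over RNA switches transcribed on Illumina chips by stalled E. coli RNA polymerase. Normalised cluster fluorescence was curve-fitted, and the per-design median over clusters is given as apparent KD.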

[1] abbreviates: Eterna round: R95, input ligand: FMN 200 uM.
The mark [2] stands for this setting: Eterna round: R95, input ligand: microRNA oligo, concentration not stated.
Setting [3] is: Eterna round: R95, input ligand: none.

“AGAAAUGCCCAUGGCCACAAGCUCUUUGCUUGUCUUACUACAUGAGGAUCACCCAUGUAACAUGGGCUCCUGAUAAU [Been] (puzzle: Sensor v3, turn-off variant 2)”: the “apparent KD of MS2 coat protein” value came to 12.2 nM under setting [1], 9.19 nM under setting [2] and 11.3 nM under setting [3].
On to “AUGCCGCUAGGAUAUUGCAGCUGAUACAUGAGGAUCACCCAUGUGACUCGCUGGGUAGUGUAAGAAGGAGUGUGCU [Eternabot (L2) Solution 27] (Eterna round: R97, puzzle: Exclusion 5)”, for which the “apparent KD of MS2 coat protein” value is, setting by setting: (input ligand: FMN 200 uM) 21.3 nM; (input ligand: none) 24 nM.
Consider “AAUUUACAUGAGGAUCACCCAUGUCAGGAUAUGGUUUUAUUUUUUUCUUUUCUUGAUUCCAGAAGGGACAGUUA (puzzle: Exclusion 1)”, for which the “apparent KD of MS2 coat protein” value under setting [2] came to 81.6 nM.
On to “AAUAAGAGAGGAUAUACUAAAAUAUGAAUAAAAUAAAUAAAACAUGAGGAUCACCCAUGUAGAAGGCUCAAUAA [JMF's Not so obvious solution 6] (puzzle: Exclusion 2)”, for which the “apparent KD of MS2 coat protein” value amounted to 23.1 nM under setting [1], 19.2 nM under setting [2] and 24.7 nM under setting [3].
In the case of “AGUGCGUAUGUGAGGAUAUGCUGGUCCUUGGAUCAGCAGAAGGCACAUGAGGAUCACCCAUGUGGUGUCGUACC [salish99_Bmod_Ex4_003] (puzzle: Brourd's mod of Exclusion 4)”, the “apparent KD of MS2 coat protein” value under setting [2] was 180 nM.
Regarding “AAUUCACAUGAGGAUCACCCAUGUCAGGAUAUGGUUUCACGUGUUUCUGUGCUUGAGGCCAGAAGGGACAGCUA (puzzle: Exclusion 1)”, the “apparent KD of MS2 coat protein” value under setting [2] was determined as 50.3 nM.
In the case of “GAUUAUGCGAGCUUUAGGGACAUGAGGAUCACCCAUGUUCGUCUUAUUAGUCUGGGUGCACUGACAUACCUAAAUCU [JMF 93] (puzzle: Sensor v3, turn-off variant 1)”, the “apparent KD of MS2 coat protein” value was determined as 169 nM under setting [1], 202 nM under setting [2] and 320 nM under setting [3].
On to “AAGAGUGCAGGAUAUACUUGGUAGGGUAAGAUGAGUGAGUGACAUGAGGAUCACCCAUGUAGAAGGGCAGAGAG [JR_Exclu2_Sub056] (puzzle: Exclusion 2)”, for which, under setting [2], the “apparent KD of MS2 coat protein” value was 107 nM.
On to “AAAUAAUAGAUAAAAUAAAACAUGAGGAUCACCCAUGUGGGAUGUUGAGGGUGAAACAAGCUUUUUGCUCGUCUUAU (puzzle: Sensor v3, turn-off variant 1)”, for which the “apparent KD of MS2 coat protein” value is 105 nM under setting [1], 502 nM under setting [2] and 139 nM under setting [3].
As for “CAUUCACAUGAGGAUCACCCAUGUCAGGAUAUAGUCGAUAUAUGGAAACAUAUAUCGACUAGAAGGGACUAGCG [Jieuxxlusion 13 - Jieux - Exclusion 1] (Eterna round: R97, puzzle: Exclusion 1)”, the “apparent KD of MS2 coat protein” value (input ligand: FMN 200 uM) turned out to be 152 nM and the “apparent KD of MS2 coat protein” value (input ligand: none) was found to be 52.6 nM.
With “AUAAGUAUAUAGGAUAUCUAGCUGGAAACAGCUAGAGAAGGAUGUACAUGAGGAUCACCCAUGUAAAUCAAUAG [Ex6/8-A2] (Eterna round: R97, puzzle: Exclusion 6)”, the “apparent KD of MS2 coat protein” value is, setting by setting: (input ligand: FMN 200 uM) 17.9 nM; (input ligand: none) 19.6 nM.
On to “UUUUUAUAUGAAGGAUAUACUUAACAUGAGGAUCACCCAUGUGGUGUUGUGAGUGAGUGAGUUUAGUAGAAGGUCAAUUAUUUC [JMF's solution 17] (Eterna round: R96, puzzle: Exclusion NG 2)”, for which the “apparent KD of MS2 coat protein” value reads like this: (input ligand: FMN 200 uM) 537 nM; (input ligand: microRNA oligo, concentration not stated) 292 nM; (input ligand: none) 549 nM.
Consider “AGUAAGCUAGGAUAUGCUUUGGGAAAGCAUUCCUUCGAUAAACUUGAGGAUCACCCAAGUAGAAGGAGCUAAAU [jl-ex2.4.49 ViennaUCT mod] (Eterna round: R97, puzzle: Exclusion 2)”, for which the “apparent KD of MS2 coat protein” value is, setting by setting: (input ligand: FMN 200 uM) 17.5 nM; (input ligand: none) 15.4 nM.
